Like-named read-outs stand apart in the source and are kept apart here.
B1: Abl2/Arg (Abelson-related gene) nonreceptor tyrosine kinase (enzyme)
chain: MGQQVGRVGEAPGLQQPQPRGIRGSSAARPSGRRRDPAGRTADAGFNVFTQHDHFASCVEDGFEGDKTGGSSPEVLHRPFGCDAESQALNEAIRWSSKENLLGATESDPNLFVALYDFVASGDNTLSITKGEKLRVLGYNQNGEWSEVRSKNGQGWVPSNYITPVNSLEKHSWYHGPVSRSAAEYLLSSLINGSFLVRESESSPGQLSISLRYEGRVYHYRINTTTDSKVYVTAESRFSTLAELVHHHSTVADGLVTTLHYPAPKCNKPTVYGVSPIHDKWEMERTDITMKHKLGGGQYGEVYVGVWKKYSLTVAVKTFKEDTMEVEEFLKEAAVMKEIKHPNLVQLLGVCTLEPPFYIVTEYMPYGNLLDYLRECSREEVTAVVLLYMATQISSAMEYLEKKNFIHRDLAARNCLVGENHVVKVADFGLSRLMTGDTYTAHAGAKFPIKWTAPESLAYNTFSIKSDVWAFGVLLWEIATYGMSPYPGIDLSQVYDLLEKGYRMEQPEGCPPKVYELMRACWKWSPADRPSFAETHQAFETMFHDSSISEEVAEELGRTASSSSVVPYLPRLPLLPSKTRTLRKQGENKENLDGGLDAAESLASSSAPAGFIRSTQASSGSPALPRKQRDKSPSSLLEDAKETCFTRDRKGGFFSSFMKKRNAPTPPKRSSSFREMENQPHKKYELTGNFSPVASLQNADGFSVAPSQQEPNLVPAKCYGGSFAQRNLCADDDSGGGGGSGTAGGGWSGITGFFTPRLIKKTLGLRAGKPTASDDTSKPFPRSNSTSSMSSGLPEQDRMAMTLPRNCQRSKLQLERTVSTSSQPEENVDRANDMLPKKSEEGAAPARERPKAKLLPRGATALPLRAPDPAITESDSPGVGVAGVAAAPKGKERNGGTRLGVAGVPEDGEQLGWSSPAKAVAVLPTTHNHKVPVLISPTLKHTPADVQLIGTDSQGNKFKLLSEHQVTSSGDKDRPRRVKPKCAPPPPPVMRLLQHPSTCSDPEEEPTAPPAGQHTPETQEGGKKAAPGPVPSSGKPGRPVMPPPQVPLPTSSISPAKMANGTAGTKVALRKTKQAAEKISADKISKEALLECADLLSSAITEPVPNSQLVDTGHQLLDYCSGYVDSIPQTRNKFAFREAVSKLELSLQELQVSSTAAGVPGTNPVLNNLLSCVQEISDVVQR
B2: cortactin (natural protein)
chain: not shown
modifications: exhibits tyrosine phosphorylation as purified from insect cells (anti-phosphotyrosine blot); sites not mapped here
B3: cortactin 3YF (natural protein)
chain: not shown
B4: cortactin W525A (natural protein)
chain: not shown
modifications: exhibits tyrosine phosphorylation as purified from insect cells (anti-phosphotyrosine blot); sites not mapped here
B5: cortactin W525A, enzymatically dephosphorylated (natural protein)
chain: not shown
modifications: dephosphorylated with CIP (no tyrosine phosphorylation on the anti-phosphotyrosine blot)

Columns and labels:
Assay in all cases: co-sedimentation
[1] = target: T1, filamentous actin (F-actin), chicken skeletal muscle (chicken, UniProt P68139 1-377)
[2] = target: T1, filamentous actin (F-actin), chicken …; remark: listed apart in the source
[3] = target: T1, filamentous actin (F-actin), chicken …; remark: listed apart in the source

Row | Binder | stoichiometry N [1] [Arg per actin monomer] | stoichiometry N [2] | fold decrease in affinity for F-actin in the presence of saturating Arg [3] [fold] | stoichiometry N [3]
1 | B1 | 0.5 | – | – | –
2 | B2 | – | 0.25 cortactin per actin monomer | – | –
3 | B3 | – | 0.25 cortactin per actin monomer | ~3 | 0.5 cortactin per actin monomer
4 | B4 | – | 0.25 cortactin per actin monomer | – | 0.5 cortactin per actin monomer
5 | B5 | – | – | ~3 | –
